The record followed here is patent US20250145716A1 (RAKUTEN MEDICAL, published 2025).

Assay [1] deals with T1, PD-L1-His (Acro Cat PDL-H5229) (human, UniProt Q9NZQ7 19-238).
T1 construct: also called human PD-L1 (SPR analyte); not shown: His tag
Briefly: SPR (Biacore 4000), antibody captured on anti-human CM4 chip, PD-L1-His analyte, 25° C. How it is done:
The binding affinities of the generated antibodies to human PD-L1 were determined by surface plasmon resonance. […] PD-L1-His (Acro Cat PDL-H5229) was tested for binding in a 3-fold titration series up to 100 nM. Data were collected in HBS-P (pH 7.4) at 37° C. and 25° C.

Assay [2] deals with T2, human PD-L1 expressed on cells (human, UniProt Q9NZQ7 19-290).
T2 construct: whole, on cells; One entry covers all human PD-L1-bearing cells; also called huPD-L1 on CHO cells (CHO-hPD-L1); PD-L1 on A431 cells
In words: flow cytometry on unstimulated A431 cells, ratio of EC50 values. How it is done:
(§1) Approximately 2.5×10⁵ A431 squamous cell carcinoma cells were plated in a final volume of 50 μL FACS buffer (phosphate buffered saline, 1% fetal bovine serum, 5 mM EDTA) in 96-well plates. 50 μL 2× Zombie Violet (BioLegend) were added to each well, and the plates were incubated 20-30 minutes at room temperature, protected from light. After incubation, 150 μL FACS buffer were added to each well. The plates were centrifuged at 500×g for 5 minutes. The supernatant was removed, and the cell pellet were resuspended in 200 μL FACS buffer. The wash procedure was repeated for a total of 2-3 washes. […] After the cells were incubated with the primary anti-PD-L1 antibody 1 hour on ice, protected from light, 150 μL FACS buffer were added to each well. The plates were then centrifuged, the supernatant was removed, and the cells were resuspended in 250 μL FACS buffer three times. After the third wash, the cells were resuspended in 100 μL goat anti-human IgG-Alexa Fluor 488 secondary antibody, and incubated for 30 minutes on ice, protected from light. After 3 washes as previously described, the cells were resuspended in 200 μL FACS buffer. The cells were then analyzed using a CytoFLEX flow cytometer.

For assay [3], the target named is T3, human B7-1/CD80 (RD Systems 9050-B1) (human, UniProt P33681 35-242).
T3 sequence (looked up): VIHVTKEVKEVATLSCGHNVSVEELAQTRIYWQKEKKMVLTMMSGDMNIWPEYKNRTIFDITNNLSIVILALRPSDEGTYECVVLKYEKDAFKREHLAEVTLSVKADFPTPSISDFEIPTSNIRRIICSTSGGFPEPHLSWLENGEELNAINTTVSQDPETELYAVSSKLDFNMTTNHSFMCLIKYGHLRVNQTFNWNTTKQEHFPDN
In words: ELISA, plate-coated human B7-1/CD80 (1 µg/mL), OD 450 nm, B7 ligand specificity panel. How it is done: (§2) Hybridoma supernatants were tested for binding to huPD-L1, cyPD-L1, and muPD-L1 by ELISA. Briefly, 30 μL 6xHis-tagged huPD-L1, cyPD-L1, or muPD-L1 (1 μg/mL in PBS) were immobilized in wells of a 96-well assay plate overnight at 4° C. After washing and blocking steps, 30 μL of antibody supernatant were added to the plate and incubated at room temperature for 1 hr. Bound human antibody was detected using horseradish peroxidase (HRP)-conjugated goat anti-human Fc (Invitrogen Cat. No. 109-035-097; diluted 1:5000) or goat anti-mouse Fc HRP (Invitrogen Cat. No. 115-035-071) as a control. Bound antibody was detected with 1-Step Ultra™ TMB-ELISA Substrate (ThermoFisher Scientific Cat. No. 34029). When the reaction was complete the reaction was stopped, and the plate was read at 450 nm.
Briefly, wells of a 96-well plate (Corning 3690) were incubated with 30 μL human PD-L1 (RD Systems 9049-B7), human PD-L2 (RD Systems 9075-PL), human B7-1/CD80 (RD Systems 9050-B1), human B7-2/CD86 (RD Systems 9090-B2), human B7-H2 (RD Systems 8206-B7), or human B7-H3 (RD Systems 1949-B3), at a concentration of 1 μg/mL in PBS, overnight at 4C, to coat the wells with ligand. After washing and blocking steps, 30 μL of antibody at 8 concentrations ranging from 1 ng/mL to 3 mg/mL were added to the plate and incubated at room temperature for 1 hr. Bound human antibody was detected as described above.

The target in assay [4] is T2, human PD-L1 expressed on cells. Briefly: flow cytometry on unstimulated A431 cells (MFI against antibody concentration). How it is done: as §1
For the next assay, the target named is T4, 6xHis-tagged cyPD-L1 (cynomolgus monkey, UniProt Q9NZQ7 19-238 (human entry)).
T4 construct: The assay text says only '6xHis-tagged cyPD-L1'; also called cynomolgus PD-L1; not shown: 6xHis tag
Briefly: ELISA, plate-coated 6xHis cyPD-L1, OD 450 nm. As for the experimental part: as §2
Anti-PD-L1 antibodies, described in Example 1A and manufactured substantially as described in Example 1B, were tested for to huPD-L1 and cyPD-L1 by ELISA substantially as described in Example 1A, using 12 dilutions of antibody ranging from 1 ng/ml to 3 mg/mL.

T1 sequence (Q9NZQ7 19-238 limits assumed): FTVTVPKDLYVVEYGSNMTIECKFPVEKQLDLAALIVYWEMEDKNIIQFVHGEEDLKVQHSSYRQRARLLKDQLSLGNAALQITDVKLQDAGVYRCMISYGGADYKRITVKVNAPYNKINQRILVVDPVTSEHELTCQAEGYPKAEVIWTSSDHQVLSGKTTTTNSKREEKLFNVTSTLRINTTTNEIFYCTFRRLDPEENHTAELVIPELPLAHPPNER
T2 sequence (Q9NZQ7 19-290): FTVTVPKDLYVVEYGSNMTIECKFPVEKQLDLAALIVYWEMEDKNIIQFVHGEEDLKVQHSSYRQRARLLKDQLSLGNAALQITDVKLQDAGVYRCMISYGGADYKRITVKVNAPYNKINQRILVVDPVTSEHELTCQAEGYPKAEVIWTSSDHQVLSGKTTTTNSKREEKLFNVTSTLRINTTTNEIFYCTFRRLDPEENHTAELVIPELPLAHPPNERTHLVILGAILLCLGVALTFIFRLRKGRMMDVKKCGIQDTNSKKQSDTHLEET
T4 sequence (Q9NZQ7 other isoform, or with tags, fused parts or gaps): as the sequence (Q9NZQ7 19-238 limits assumed) above, with A33T, A34S, S62N, R68Q, Q82R, F173L, T185A, T192I, H215L counted along it

B1: 1P9 (antibody, V domains shown)
VH: EVQLVESGGGLVQPGGSLRLSCAASGFTFSTYWMSWVRQAPGKGLEWVANIKQDGGERYYVDSVKGRFTISRDNAKSSLYLQMNSLRAEDTALYYCARLRLYSDYEDYWGQGTLVTVSS
VL: DIQMTQSPSSVSASVGDRVTITCRASQGISSWLAWYQQKPGKAPKLLIYSVSSLQSGVPSRFSGSGSGTDFTLTISSLQPEDSATYYCQQANSLPPTFGGGTKVEIK
notes: Recombinant full-length human antibody expressed in CHO K1 GS KO cells, with wild-type human Fc; also called anti-PD-L1 antibody 1P9; Unconj; 1P9
B1: in assay [1], the Kd was 0.27 nM, the koff amounted to 5.1e-05 s⁻¹ and the kon was 190000 M⁻¹ s⁻¹. In addition, in assay [2], the “fold potency against avelumab” value amounted to 3.5 fold. The EC50 in assay [3] came out at 5.31 µg/mL. In assay [4], this molecule had an EC50 of 0.0159 µg/mL. This molecule also came in with an EC50 in the assay with 6xHis-tagged cyPD-L1 of 0.0338 µg/mL.
